Experimental data published in PMC12491784, “A Circular RNA Promotes Tumor Metastasis through Stabilizing MSI2 Protein in Pancreatic Ductal Adenocarcinoma”.

Assays:
[1] = target: T1, MSI2 (Musashi-2), recombinant (UniProt Q96DH6 1-328); assay: EMSA; EMSA: kit binding buffer (Beyotime GS009), 25 C 1 h, 5% native PAGE; RNA pull-down: 100 pmol biotinylated probe on streptavidin beads, 4 C 4 h; high-stringency; settings: protein: recombinant; tags: GST; label: 5' biotin
[2] = target: T1, MSI2 (Musashi-2), recombinant; assay: pull-down; EMSA: kit binding buffer (Beyotime GS009), 25 C 1 h, 5% native PAGE; RNA pull-down: 100 pmol biotinylated probe on streptavidin beads, 4 C 4 h; high-stringency; settings: protein: recombinant; tags: GST; label: 5' biotin

T1 sequence (Q96DH6 whole entry): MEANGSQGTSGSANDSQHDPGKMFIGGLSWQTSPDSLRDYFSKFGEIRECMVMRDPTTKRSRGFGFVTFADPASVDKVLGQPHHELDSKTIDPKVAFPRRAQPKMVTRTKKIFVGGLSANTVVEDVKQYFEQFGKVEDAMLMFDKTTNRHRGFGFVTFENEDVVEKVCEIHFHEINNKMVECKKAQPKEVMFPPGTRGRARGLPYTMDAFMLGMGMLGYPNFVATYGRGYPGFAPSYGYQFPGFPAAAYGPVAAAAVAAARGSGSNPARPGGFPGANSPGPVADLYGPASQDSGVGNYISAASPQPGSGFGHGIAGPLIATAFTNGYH

| Binder | binding result [1] | binding result [2] |
| --- | --- | --- |
| GUGUGCUCCAUAGUUUAUCAAAAG (ssRNA) [P1 RNA probe] | binds |  |
| UCCUAUCAAAUAACUAAACCAAAG (ssRNA) [P2-mut RNA probe] |  | no binding |
| UCCUAUCAAAUUAGUAAACCAAAG (ssRNA) [P2 RNA probe] | binds |  |
| GUGUGCUCCAAACUUUAUCAAAAG (ssRNA) [P1-mut RNA probe] |  | no binding |
